Values of other authors as cited in PMC9583766.
pKd: −log10 of the molar value.

Biological target: plasma prekallikrein (PK) (Homo sapiens) (UniProt P03952)
UniProt P03952, sequence (P03952 20-638): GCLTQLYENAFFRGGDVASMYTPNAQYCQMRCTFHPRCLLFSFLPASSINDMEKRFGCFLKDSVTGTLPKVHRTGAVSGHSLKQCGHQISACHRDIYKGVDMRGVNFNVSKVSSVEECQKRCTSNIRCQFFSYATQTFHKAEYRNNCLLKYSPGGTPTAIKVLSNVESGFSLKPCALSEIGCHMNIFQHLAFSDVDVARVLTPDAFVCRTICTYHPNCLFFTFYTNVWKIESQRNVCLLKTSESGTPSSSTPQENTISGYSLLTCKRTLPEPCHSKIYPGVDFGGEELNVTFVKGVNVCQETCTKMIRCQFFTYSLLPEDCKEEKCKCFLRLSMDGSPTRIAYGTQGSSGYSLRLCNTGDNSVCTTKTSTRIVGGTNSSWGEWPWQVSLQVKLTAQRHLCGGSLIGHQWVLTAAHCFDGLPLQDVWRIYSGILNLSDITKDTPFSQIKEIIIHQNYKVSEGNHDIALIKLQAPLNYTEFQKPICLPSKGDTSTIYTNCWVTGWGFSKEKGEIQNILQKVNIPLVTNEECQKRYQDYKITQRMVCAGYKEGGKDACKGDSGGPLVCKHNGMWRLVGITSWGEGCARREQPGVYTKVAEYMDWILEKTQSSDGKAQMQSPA

pKd: 7.92
Substance: high-molecular-weight kininogen (nHK) (from UniProt P01042)
